Data set [1] concerns lac Z expression. As to the kind of experiment: β-galactosidase reporter assay (xpt-lacZ fusion). It counts as cell-based, B. subtilis. The following applies: for lac Z expression / transcriptional control (in words): presence and absence of guanine, B. subtilis. As to the method: Kissing-loop mutants were analyzed to determine whether they can exert riboswitch activities by controlling transcription termination, given that the guanine binding was retained in all of them. To test this, a β-galactosidase reporter assay was performed in B.subtilis. […] The gene expression is repressed in wild-type due to the transcription termination in the presence of guanine. […] The fast kissing dynamics between the L2-L3 probably have a stabilizing effect on P1, and therefore an increase in the transcription termination is observed. […] This underscores that the L2-L3 dynamics are directly involved in the P1-helix formation, which affects the terminator hairpin downstream that ultimately results in an alteration of the riboswitch activities.
To assess if the aptamer mutants can exert a transcriptional control similar to the previously reported wild-type xpt-pbuX riboswitch, a xpt-lacZ fusion was constructed as described by Mandal et al., “Riboswitches control fundamental biochemical pathways in Bacillus subtilis and other bacteria”. Cell 113, 577-586 (2003). Briefly, nts −121 to +197 relative to the transcriptional start site of the xpt-pbuX operon from B. subtilis 1A1 (BGSC, Columbus, Ohio) was PCR amplified and cloned upstream of the lacZ reporter gene into pDG1661 vector. After confirming the cloned sequence, plasmid variants were integrated into the amyE locus of the 1A1 strain. Transformants were selected for double markers, specifically for chloramphenicol (5 μg/ml) resistance and sensitivity to spectinomycin (100 μg/ml). Selected B. subtilis colonies were subsequently grown in minimal media (25 g/L K2HPO4·3H2O, 6 g/L KH2PO4, 1 g/L sodium citrate, 0.2 g/l MgSO4·7H2O, 2 g/L Na2SO4, 50 μM FeCl3, 2 μM MnCl2, 50 μg/ml L-Tryptophan, 50 μg/ml L-Lysine, 50 μg/ml L-Methionine, 0.4 g/100 ml glucose, and 0.2 g/100 ml glutamate) at 37° C. with vigorous shaking. Purines were added at a final concentration of 0.1 mg/ml. Cells were harvested at mid-logarithmic growth phase (A600˜0.1-0.4), and resuspended in the above buffer for the reporter assay. The color development was recorded by measuring absorbance, A420 at the end of the reaction with appropriate controls. Data is represented in Miller Units calculated from the following relation:
[formula] where Δt is the total duration taken in the substrate cleavage by […], measured as absorbance, A420. The Miller Units shown in FIG. 4A represents mean±standard deviation from 3 independent experiments, wherein each independent experiment was performed in duplicate.
Background: Reporter assays use an easily measured gene product as a stand-in for the process of interest.

Data set [2] can be described thus: Isothermal titration calorimetry (ITC). It counts as binding. The following applies: for Kd: 50 mM K^+ Hepes pH 7.5, 100 mM KCl, 10 mM MgCl2, read-out: KD for guanine. As to the method:
For ITC experiments, wild-type G-aptamer and the mutant RNAs were synthesized by in vitro transcription of the DNA template and purified by denaturing polyacrylamide gel electrophoresis (PAGE). The ligand guanine was introduced in the syringe, while the RNA into the sample cell at a final concentration of 10 μM and 1 μM respectively. The concentrations were determined by absorbance reading using ε260=12010 M^−1 cm^−1 (guanine) and ε260=711400 M^−1 cm^−1 (RNA). The buffer in the syringe and the sample cell contained 50 mM K^+ Hepes (pH 7.5), 100 mM KCl, and 10 mM MgCl2. Binding reactions were performed at 30° C. on a MicroCal iTC200 instrument (Malvern) with a reference power of 6 μcal/sec, an initial delay of 60 secs and a stirring speed of 750 rpm. Guanine was titrated into the sample cell in 16 injections (2.5 μl each). The injection rate was 0.5 μl/sec and the spacing between the injections was maintained at 120 sec. Data was baseline corrected and fitted to a single-site binding model to obtain association constant (KA), stoichiometry (n) and binding enthalpy, ΔH. The dissociation constant (KD) and the binding free energy, ΔG was obtained from the fitted parameters using the following relations. All data analysis was performed using the Origin ITC software.
The ITC results are reported as mean±standard deviation from three independent experiments.
(ITC needs no label: the signal is the heat of the interaction.)

We go through five molecules from patent publication US11905559B2, “Materials and methods for controlling gene expression” (priority 2016, dated 2024).

As usually defined, the Kd is a measure of binding affinity in units of concentration.

B1: wt: 69-nucleotide full-length wild-type guanine sensing aptamer RNA sequence from xpt-pbuX operon in B. subtilis (SEQ ID NO: 1) (nucleic acid)
chain: CACUCAUAUAAUCGCGUGGAUAUGGCACGCAAGUUUCUACCGGGCACCGUAAAUGUCCGACUAUGGGUG
modifications: RNA, backbone and methylation of C not given here
For the molecule B1, the “lac Z expression / transcriptional control (in words)” value in data set [1] is on record as “repressed”. Besides, in data set [2] (30° C.), the “ΔG of guanine binding” value was -11.63 ± 0.20 kcal/mol, the “ΔH of guanine binding” value is -63.7 ± 1.1 kcal/mol and the Kd was found to be 4.22 ± 0.6 nM.

B2: m6: m6 mutant guanine sensing aptamer RNA (SEQ ID NO: 7); U67A, shorter P3 hairpin and larger L3 loop (nucleic acid)
chain: CACUCAUAUAAUCGCGUGGAUAUGGCACGCAAGUUUCUACCGGGCACCGUAAAAGUCCGACUAUGGGUG
modifications: RNA, backbone and methylation of C not given here
notes: U67A, shorter P3 hairpin and larger L3 loop
Consider B2, for which the “Repression exceeding the wild-type repression” value in data set [1] (in the presence of guanine) is on record as about 3 fold. For the same molecule, the “lac Z expression / transcriptional control (in words)” value in data set [1] is on record as “highly repressed”. Further, the dissociation constant Kd in data set [2] (30° C.) amounted to 6.7 ± 0.63 nM.

B3: m1: m1 mutant guanine sensing aptamer RNA (SEQ ID NO: 2); G37 replaced with adenine in the L2 loop (nucleic acid)
chain: CACUCAUAUAAUCGCGUGGAUAUAGCACGCAAGUUUCUACCGGGCACCGUAAAUGUCCGACUAUGGGUG
modifications: RNA, backbone and methylation of C not given here
notes: G37 replaced with adenine in the L2 loop
On to B3, for which, in data set [1], the “lac Z expression / transcriptional control (in words)” value is “completely de-repressed”. Further, in data set [2], the “KD off relative to wild-type” value was 35 fold. The “ΔG of guanine binding” value in data set [2] (30° C.) is -9.52 ± 0.22 kcal/mol.

B4: m4: m4 mutant guanine sensing aptamer RNA (SEQ ID NO: 5); A59G/U67C in the P3 hairpin (nucleic acid)
chain: CACUCAUAUAAUCGCGUGGAUAUGGCACGCAAGUUUCUACCGGGCGCCGUAAACGUCCGACUAUGGGUG
modifications: RNA, backbone and methylation of C not given here
notes: A59G/U67C in the P3 hairpin
In the case of B4, in data set [1] (in the presence of guanine), the “Expression higher than the wild-type” value was about 7 fold. Further, in data set [1], the “lac Z expression / transcriptional control (in words)” value is recorded as “moderately repressed”. Further, in data set [2] (30° C.), the Kd is 3.59 ± 0.05 nM.

B5: m7: m7 mutant guanine sensing aptamer RNA (SEQ ID NO: 8); U25C in J1/2 (nucleic acid)
chain: CACUCAUAUAACCGCGUGGAUAUGGCACGCAAGUUUCUACCGGGCACCGUAAAUGUCCGACUAUGGGUG
modifications: RNA, backbone and methylation of C not given here
Take B5: the “Expression higher than the wild-type” value in data set [1] (in the presence of guanine) is reported as about 2.5 fold. Also, the Kd in data set [2] (30° C.) worked out at 16.9 ± 1 nM.
